Data on 26 molecules can be found in patent US8062638 (Chugai, dated 2011).

Changes are numbered by the printed parent chain.

B1: humanized H chain version b / chimeric L chain antibody (antibody, V domains shown)
VH: QVQLLESGAVLARPGTSVKISCKASGFNIKDYYMHWVKQRPGQGLEWIGGNDPANGHSMYDPKFQGRVTITADTSTNTAYMELSSLRSEDTAIYYCARDSGYAMDYWGQGTLVTVSS
VL: DIKMTQSPSSMYASLGERVTITCKASQDIKSFLSWYQQKPWKSPKTLIYYATSLADGVPSRFSGSGSGQDYSLTINNLESDDTATYYCLQHGESPYTFGGGTKLEIK
notes: Expressed from N5KG4P (human IgG4-type)
B2: humanized H chain version a / chimeric L chain antibody (antibody, V domains shown)
VH: QVQLLESGAVLARPGTSVKISCKASGFNIKDYYMHWVKQRPGQGLEWIGGNDPANGHSMYDPKFQGRAKLTAATSASIAYLEFSSLTNEDSAVYYCARDSGYAMDYWGQGTLVTVSS
VL: B1 VL
notes: as for B1
B3: humanized H chain version c / chimeric L chain antibody (antibody, V domains shown)
VH: QVQLLESGAVLARPGTSVKISCKASGFNIKDYYMHWVKQRPGQGLEWIGGNDPANGHSMYDPKFQGRVTMLVDTSKNQFSLRLSSVTAADTAVYYCARDSGYAMDYWGQGTLVTVSS
VL: B1 VL
notes: as for B1
B4: H chain humanized version b / L chain humanized version b antibody (antibody, V domains shown)
VH: B1 VH
VL: DIQMTQSPSSLSASVGDRVTITCKASQDIKSFLSWYQQKPGKAPKLLIYYATSLADGVPSRFSGSGSGTDYTLTISSLQPEDFATYYCLQHGESPYTFGGGTKVEIK
notes: also called b-b; humanized antibody version b-b
B5: humanized H chain version d / chimeric L chain antibody (antibody, V domains shown)
VH: B1 VH with T74E, N77S, T91S, I93V, Y95F
VL: B1 VL
notes: as for B1
B6: humanized H chain version g / humanized L chain version b antibody (antibody, V domains shown)
VH: B1 VH with R67K, V68A, I70L, T74E, T76S, N77S, E82Q, T91S, I93V, Y95S
VL: B4 VL
notes: Expressed from N5KG4P (human IgG4-type); also called g-b
B7: humanized H chain version j / humanized L chain version b antibody (antibody, V domains shown)
VH: B1 VH with I70F, T76A, S84R, E89A, I93V
VL: B4 VL
notes: Expressed from N5KG4P (human IgG4-type); also called j-b
B8: humanized H chain version d / humanized L chain version b antibody (antibody, V domains shown)
VH: B1 VH with T74E, N77S, T91S, I93V, Y95F
VL: B4 VL
notes: Expressed from N5KG4P (human IgG4-type); also called d-b
B9: humanized H chain version d3 / humanized L chain version b antibody (antibody, V domains shown)
VH: B1 VH with K38R, R40A, T74E, N77S, T91S, I93V, Y95F
VL: B4 VL
notes: Expressed from N5KG4P (human IgG4-type); also called d3-b
B10: humanized H chain version b / humanized L chain version b2 antibody (antibody, V domains shown)
VH: B1 VH
VL: B4 VL with G41E, L46S
notes: Expressed from N5KG4P (human IgG4-type); also called b-b2
B11: H chain humanized version i / L chain humanized version b2 antibody (antibody, V domains shown)
VH: B1 VH with N77S, A79V, Y80F, I93V
VL: B4 VL with G41E, L46S
notes: also called i-b2; humanized anti-human TF antibody version i-b2
B12: humanized H chain version i / humanized L chain version b1 antibody (antibody, V domains shown)
VH: B1 VH with N77S, A79V, Y80F, I93V
VL: B4 VL with Y36F, A43S, L46T
notes: Expressed from N5KG4P (human IgG4-type); also called i-b1
B13: humanized H chain version i / chimeric L chain antibody (antibody, V domains shown)
VH: B1 VH with N77S, A79V, Y80F, I93V
VL: B1 VL
notes: as for B1
B14: humanized H chain version b / humanized L chain version c antibody (antibody, V domains shown)
VH: B1 VH
VL: B4 VL with F83I
notes: Human IgG4-type (N5KG4P series); also called b-c
B15: humanized H chain version b / humanized L chain version a antibody (antibody, V domains shown)
VH: B1 VH
VL: B4 VL with Y71F
notes: Expressed from N5KG4P (human IgG4-type); also called b-a
B16: H chain humanized version i / L chain humanized version b antibody (antibody, V domains shown)
VH: B1 VH with N77S, A79V, Y80F, I93V
VL: B4 VL
notes: also called humanized antibody version i-b
B17: humanized H chain version b3 / humanized L chain version b antibody (antibody, V domains shown)
VH: B1 VH with K38R, R40A
VL: B4 VL
notes: Expressed from N5KG4P (human IgG4-type); also called b3-b
B18: humanized H chain version e / chimeric L chain antibody (antibody, V domains shown)
VH: B1 VH with T69S, T74E, N77K, T78I, S84N, I93V, Y95F
VL: B1 VL
notes: as for B1
B19: humanized H chain version j / chimeric L chain antibody (antibody, V domains shown)
VH: B1 VH with I70F, T76A, S84R, E89A, I93V
VL: B1 VL
notes: as for B1
B20: chimeric H chain / humanized L chain version b antibody (antibody, V domains shown)
VH: EVQLQQSGTNLVRPGALVKLSCKGSGFNIKDYYMHWVKQRPEQGLEWIGGNDPANGHSMYDPKFQGKASITADTSSNTAYLQLSSLTSEDTAVYFCARDSGYAMDYWGQGTSVTVSS
VL: B4 VL
notes: Expressed from N5KG4P (human IgG4-type); also called ch-b
B21: humanized H chain version a / humanized L chain version a antibody (antibody, V domains shown)
VH: B2 VH
VL: B4 VL with Y71F
notes: as for B1
B22: chimeric H chain / humanized L chain version a antibody (antibody, V domains shown)
VH: B20 VH
VL: B4 VL with Y71F
notes: as for B1
B23: chimeric H chain / humanized L chain version c antibody (antibody, V domains shown)
VH: B20 VH
VL: B4 VL with F83I
notes: as for B1
B24: chimeric H chain / humanized L chain version b1 antibody (antibody, V domains shown)
VH: B20 VH
VL: B4 VL with Y36F, A43S, L46T
notes: Expressed from N5KG4P (human IgG4-type); also called ch-b1
B25: chimeric H chain / humanized L chain version b2 antibody (antibody, V domains shown)
VH: B20 VH
VL: B4 VL with G41E, L46S
notes: Expressed from N5KG4P (human IgG4-type); also called ch-b2
B26: chimeric ATR-5 antibody (H chain chimeric/L chain chimeric) (antibody, V domains shown)
VH: B20 VH
VL: B1 VL
notes: Mouse ATR-5 V regions on human C regions; Both IgG1-type (N5KG1(V)) and IgG4-type (N5KG4P) vectors were made; also called ch-ch; chimeric antibody

For one assay, the target named is T1, human tissue factor (TF) on cells (human, UniProt P13726 33-295).
T1 construct: also called human TF; the antigen
The experiment in a line: cell ELISA on fixed J82 cells expressing TF. (In general: An ELISA detects its analyte on a solid surface through an enzyme-linked reagent.)
For B1, the binding result was “binds”.
Same read-out and setting: the same measure for B2: “binds”; for B3: “binds”; for B4: “binds”.
Still for that read-out and setting: the value for B5 was “binds”; that for B6 was “binds”.
On the same count and under the same terms, the value for B7 was “binds”.
As for B8, the binding result is recorded as “binds”.
On the same count and under the same terms, the same measure for B9: “binds”.
In the case of B10, the binding result is “binds”.
Still for that read-out and setting: the value for B11 was “binds”.
Still for that read-out and setting: the value for B12 was “binds”.
Still for that read-out and setting: the same measure for B13: “binds”; for B14: “binds”; for B15: “binds”.
B16: the binding result is given as “binds”.
For B17, the binding result was “binds”.
The same measure, in the same setting: the same measure for B18: “binds”; for B19: “binds”; for B20: “binds”.
On the same count and under the same terms, the value for B21 was “binds”; that for B22 was “binds”; that for B23 was “binds”.
On the same count and under the same terms, the value for B24 was “binds”; that for B25 was “binds”.

The target in a further assay is T1, human tissue factor (TF) on cells. The experiment in a line: cell ELISA on fixed J82 cells expressing TF; chimeric antibody is the reference.
In the case of B26, the binding result is listed as “binds”.
